Experimental data reported in the domain aggregation screens of Martell et al. (2025).

test: soluble fraction after stress (log2 fold change); higher = more stays soluble; pooled small domains, quantitative proteomics; settings: stress: 50 degC
Summary of the method: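 Pooled custom libraries of small protein domains were each held under stress at 50°C. The read-out, high-throughput quantitative proteomics, tracked how much of each protein stayed soluble. This is reported as a base-two log fold change used to indicate aggregation propensity. Higher values mean more protein remains in solution.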

“HMSEEIKVPNFVGSTFEKAQALAQETGLEIARGEDVYSPDQEEGKITSQNPTADSVVSPGKLITVYVSKG” and “HMFTRFTVAQDGWTIGGFTAKEMAVSTAKQHAVDTGKPVTVVAHVAGGGSREAIFNSDGTNDKIWN” are within 0.2 log units of each other in “soluble fraction (log2)” value: 0.00159 for the first, 0.0601 for the second.

“HMNVAVPTPADKRKVRVMKADINAKLRVNDANGAYAVYEELKEWVTLKGFTEWNDDLSKLSETMGSMKRKV” and “HMDGFAEFWSAYPKKVGKGAAEASWRKHRPPLQTVLDAVKRQAESDQWRKDGGQFIPNPATWLNQKRWEDD” are within 0.2 log units of each other in “soluble fraction (log2)” value: -0.0289 for the first, 0.0948 for the second.

Compared with “HMRKNVAGITPNVYGMGLKDAVYLLENAGYRVKVNGRGNVVRQSINSGTRIIKGQLIILDLD”, “HMAISSADRIVAELRTWISGASPGTQLPSSRTLAARYGASPVTVQKALHTLAGMGLVEARPGAGTFVRRQS” is higher in “soluble fraction (log2)” value: -2.73 for the first, -0.189 for the second.

Compared with “HMRMTTEQLMSFLKQHFPQVADNFTVRISDEGRLSVEMPVNDKHLRPGGTVSGPSMFALADVAFYLAILQ”, “HMNEWVSVEERLPTDERPVLAFIGYADTMNGFITTSYYFRFDPDPHWLGEGLIPVGLKTLFWMPLPAP” is higher in “soluble fraction (log2)” value: -1.16 for the first, -0.0149 for the second.

Compared with “HMAKVSVNIILKDGVDQTTFVNDVTSNTEVDLKNQLISLPQMVVLSVEEDYINTLKSHSSISILELDE”, “HMGMSMNEFLNNRLEQLAVEAVDKSSLGEEIFFYAEPATINLFKDAVDEDEYKVVFPVLKSIIEVEQKLSR” is lower in “soluble fraction (log2)” value: -0.00499 for the first, -1.03 for the second.

“HMSGQLTEEQVKQIVTTAVKNSSGSTLTAAEVSRIVSTAVANNLTADQVKTVVNNALAGITTDISTLKA” and “HMPDLQKAIDDLLQVVDKRLNTSFESILNEVNSEKEAVAFFLALLEAVRWGFVKASQSDEGIKIEK” are within 0.2 log units of each other in “soluble fraction (log2)” value: 0.0898 for the first, -0.00989 for the second.

Going from “HMSNLLKNILDVLEKEGPLKARKIALLLDSTRTTITHTTINSELYKALDLEGLTKNEQNIWSYVT” to “HMQRDTIAISAIPTAIKTYLSSTYPTDTLVHAFVNKDQSIVVISKNIDFYATSFSTANAFIKRIQLPA”, the “soluble fraction (log2)” value falls from 0.00627 to -1.03.

Compared with “HMGDIFTAEDAKERIDYSGVDGIMLARGIFGNPWLIRDIREYLEYGKILHPVTQLDRVNMAIEHTRKT”, “HMGNPSGLPLPRFASTRSEPINVRVGPGQKYDIAWTYLKSGIPVEIIQEFDTWRKIRDFDGAEGWIHQNLL” is lower in “soluble fraction (log2)” value: 0.0388 for the first, -0.937 for the second.

“HMEDPAVYYKILQIPPDASLSEIHRAFEKITSAWDPERYPHISSWKETSAKKLQEIRNAYEKLLILRETG” and “HMDSPVLTAEIKALIDKELEQNAVKLATGLKKQRKRATDIHDALIRQGHEVSYRTVVRYIRNKTAQTS” are within 0.2 log units of each other in “soluble fraction (log2)” value: -0.0409 for the first, -0.061 for the second.

Compared with “HMPHFFISTSDVNQDIITVSDKENFHHIARVLRSKVGETLLLVDENRTQYKVVIQNIDSKSITTKVVETLK”, “HMNEKTGTLTVYSSPGWAKVYIDGEYKGITPVMANLTYGDHYVKLTLDGYDSIGNHIDVNSPDQSYTGKF” is lower in “soluble fraction (log2)” value: -0.138 for the first, -0.494 for the second.

Compared with “HMKDNPNETFERIAGKITRTLRSGPVRIQQLDLLFSESAGKVVDVLRAMAENGEVLIKDDTIQLNGNN”, “HMSRVFSPSELEIRHAQDVFQALEEAKRQGKGAVSLNGKMIDAPIVARAKLVLEAAAAIYGED” is lower in “soluble fraction (log2)” value: 0.0379 for the first, -0.362 for the second.

Compared with “HMGSQLYTLEVEADEKISLIENNPLLIQKIYLKDNNLFSYKIASSSKTEIASIEKELEKNPSIKRLETA”, “HMRSFGTVAQARGRWKAFYVGPDKRRHTPGVTFSNPIRAQGWLAQELTLIELGQWTPPAQRREKAEVAS” is lower in “soluble fraction (log2)” value: -0.181 for the first, -2.4 for the second.

“HMEYLIENYGSVINQARMKKGMTQEQLSSKTGVSQAYIRSIESQNMKPTDAVARKIEFELGIKLFE” and “HMSQPYFELAAADMEALRNALSTIREIESVVLSGKIFHVEVREDLDPGTMNKLAFERGITLTHLVKKKN” are within 0.2 log units of each other in “soluble fraction (log2)” value: -0.0273 for the first, -0.0763 for the second.

“HMAAQDLIVKTDASQVEARVLEISPDAVRYKRFSNPDGPTYVLPVAEIRYIRYANGEVEYYA” and “HMGKELSTVVVPDLTGLSVLEARNVLTKVGLQLTPSGAGIAFKQIPTPGTRLTLGATVTVYFVATGY” are within 0.2 log units of each other in “soluble fraction (log2)” value: -0.0166 for the first, 0.0979 for the second.

Compared with “HMVTDVDELEKLIQKVLDSNSSQVDEYRQGKEKVFGFFVGAVMKLTKGQADPDVVNQLLKEKLSGRK”, “HMVVLPGEVLRINVIQEGKEHGQGVGYMDDGTMVVIENGREFIGEYMEVNVTKVLQTAAGRMIFGRVD” is lower in “soluble fraction (log2)” value: 0.195 for the first, -0.526 for the second.

Compared with “HMRDSYTFEDIEKLKDSYLQDSEKALEKLISIYEDTNQSLAIRTAALDIITDSQDPTFKLALEKIIS”, “HMDTNAIIGLRIKNLRTEKKYTLKYLSENTGLSIGFLSQLERGMTSIAIDSLDKISKVLDVELSSFFT” is lower in “soluble fraction (log2)” value: 0.0263 for the first, -1.24 for the second.

First: HMVEGTVKWFNDEKGFGFIEQEGGKDVFVHFSAINGSGRRTLHEGQRVTMEVTQGQKGPQAENVNP
Second: HMGVDKLTPREREVLALMAQGASNREIEGKLVLTAGAVSKHVANVFMKLGFSPEDENRRVKAVLAWLRTK
The “soluble fraction (log2)” value of the first is higher: 0.181 for the first, -1.05 for the second.

First: HMAMKFQDIVRQKRKELGLTQEQAARRLGVSPAAVSKWESGQSLPDTPLFAPLARLLHTDLNTLLSFE
Second: HMSKMVEMSQEKSREKVARVKIEIQKMLDRKERVTVSGLERATGFSNSFFYRNEEVNQAVKEAQLKQ
The “soluble fraction (log2)” value of the first is lower: -0.732 for the first, 0.0985 for the second.

“HMIENMQEYVRHIRAAVSDRLDLTREVEDDEIREVISQIVAEESRQNYLSLGERQTVIETVFNSMR” and “HMEEIDLTPAEEILNKLPDNSRGYLIPTLNKIQNAYRFLPDPAMELLMEFFNVSRAEIFGVISFYPQLMI” are within 0.2 log units of each other in “soluble fraction (log2)” value: -0.2 for the first, -0.0574 for the second.
